Experimental findings from article PMC5384750 (PLoS ONE, 2017) are described below.

In the assay the target is T1, recombinant IDE (rIDE) (Rattus norvegicus, UniProt P35559).
T1 construct: purchased Calbiochem
In words: In vitro degradation by recombinant IDE (extent, kinetics, cleavage sites). It is filed as biochemical. The conditions noted are these: 10 ng insulin-FITC, 30 min, 37°C; fluorescence; four independent experiments. As for the experimental part: (A) 10 ng of sp6BY or insulin-FITC were incubated with indicated amounts of rIDE for 30 min at 37°C. Remaining amounts of sp6BY and insulin-FITC were detected by measurement of fluorescence excitation. (B) Results of four independently performed experiments. Values represent the arithmetic mean ± SD. (C) Increasing concentrations of sp6BY were incubated with rIDE for 10 min at 37°C. The velocities were calculated from the degradation of sp6BY and normalized for the amount of rIDE. Data points represent values from three independent experiments in a double-reciprocal Lineweaver-Burk plot.
Fig 8 Generation of stable p6 mutants. […] Reactions were stopped by adjusting the samples to 0.3% (w/v) […] and subsequently analyzed by mass spectrometry. Arrows above the primary sequence represent the detected cleavage sites, and initial and secondary cleavage sites are indicated as big or small arrows, respectively. […] (C) 10 ng of sp6BY were incubated with 250 μg/ml sp6 wt, 2xPTAPPA, 3xPTAPPA or only buffer and 5 μg S10 for 30 min at 37°C. sp6BY was detected by fluorescence emission and quantified. […]
Typically 5 μg S10 were incubated with inhibitor or buffer and 20–100 ng sp6 at 37°C for 30 min. […] Remaining p6 was detected by Western blotting using an anti-p6 rabbit antiserum. […] In some experiments the amount of p6 was densitometrically quantified with the software AIDA (Raytest). […]

T1 sequence (P35559 whole entry): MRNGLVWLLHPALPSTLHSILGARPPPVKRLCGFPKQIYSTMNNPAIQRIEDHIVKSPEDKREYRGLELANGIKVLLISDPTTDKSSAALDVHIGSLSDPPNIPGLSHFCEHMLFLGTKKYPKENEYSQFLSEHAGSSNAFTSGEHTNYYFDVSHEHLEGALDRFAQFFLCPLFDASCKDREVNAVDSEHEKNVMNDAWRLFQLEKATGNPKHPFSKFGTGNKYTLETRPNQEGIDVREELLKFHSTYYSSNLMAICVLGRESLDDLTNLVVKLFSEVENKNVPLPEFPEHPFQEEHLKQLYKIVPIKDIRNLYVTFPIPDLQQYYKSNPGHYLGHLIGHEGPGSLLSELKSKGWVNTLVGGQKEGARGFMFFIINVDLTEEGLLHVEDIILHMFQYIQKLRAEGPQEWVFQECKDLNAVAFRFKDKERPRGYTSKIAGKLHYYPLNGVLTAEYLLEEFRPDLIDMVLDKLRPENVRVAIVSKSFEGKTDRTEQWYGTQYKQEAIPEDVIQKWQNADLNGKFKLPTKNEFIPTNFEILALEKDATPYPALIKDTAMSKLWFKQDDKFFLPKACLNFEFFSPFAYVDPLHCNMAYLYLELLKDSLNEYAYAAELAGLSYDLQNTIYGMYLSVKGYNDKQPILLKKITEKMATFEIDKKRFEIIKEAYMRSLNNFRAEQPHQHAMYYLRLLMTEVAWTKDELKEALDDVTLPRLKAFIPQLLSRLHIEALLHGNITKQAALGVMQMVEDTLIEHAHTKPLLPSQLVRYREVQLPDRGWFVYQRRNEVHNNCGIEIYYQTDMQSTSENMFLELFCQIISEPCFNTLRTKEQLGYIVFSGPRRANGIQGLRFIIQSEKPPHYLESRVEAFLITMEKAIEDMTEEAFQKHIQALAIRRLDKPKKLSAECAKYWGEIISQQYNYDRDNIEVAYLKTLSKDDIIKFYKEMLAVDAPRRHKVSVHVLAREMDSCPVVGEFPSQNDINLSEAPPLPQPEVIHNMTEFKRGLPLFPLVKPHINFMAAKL

Regarding “insulin-FITC: recombinant FITC-labeled insulin (Sigma)”, the “amount of rIDE required to cleave with the same efficiency, relative to sp6” value turned out to be 100 fold.
